Measured values as given in paper PMC5827684.

What was measured:
[1] = test system: IscR-C92A (apo-locked) (Escherichia coli); assay: EMSA
[2] = test system: Fur (Mn2+-Fur) (Escherichia coli); assay: EMSA

Row | Substance | binding [1] | binding [2]
1 | hmuR-hmuS intergenic, larger fragment | 62.5 nM | –
2 | hmuR promoter (p1) | – | 31.2 nM
3 | control DNA in 3' end of hmuR coding region | 250 nM | –
